Source: US20200121775A1

Molecular target: HLA A02:01 class I molecule with β2-microglobulin (human)
Experiment: REVEAL MHC class I binding/stabilization assay (ProImmune)

Substance: positive control peptide (REVEAL assay)
- REVEAL Score: 100 score
